In US12281162 (LANOVA MEDICINES DEVELOPMENT, dated 2025):
Residue numbers refer to the chain shown, from its start.

B1: 37-H2L2 (antibody, V domains shown)
VH: EVQLVESGGGLVQPGGSLRLSCAASGFTFSDYWMNWVRQSPGKGLEWVAEIRLKSNNYATHYAESVKGRFTISRDNAKSSLYLQMNSLRAEDTAVYYCTRPLLWFRRYYAMDYWGQGTLVTVSS
VL: DIQMTQSPSSLSASVGDRVTITCSASQGISNYLNWYQQKPGKTVKLLIYYTSSLHSGVPSRFSGSGSGTDYTLTISSLQPEDFATYYCQQYSKLPFTFGQGTKLEIK
notes: humanized 37B9C4, VH v2 x VL v2
B2: 37-H1L3 (antibody, V domains shown)
VH: B1 VH with S40A, S79N, T99A
VL: B1 VL with V19I, Q100S
notes: humanized 37B9C4, VH v1 x VL v3
B3: 37-H2L1 (antibody, V domains shown)
VH: B1 VH
VL: B1 VL with T43A, V44P, Y71F
notes: humanized 37B9C4, VH v2 x VL v1
B4: 37-H2L3 (antibody, V domains shown)
VH: B1 VH
VL: B1 VL with V19I, Q100S
notes: humanized 37B9C4, VH v2 x VL v3
B5: 37-H3L1 (antibody, V domains shown)
VH: B1 VH with N76D, A77S, L81V
VL: B1 VL with T43A, V44P, Y71F
notes: humanized 37B9C4, VH v3 x VL v1
B6: 37-H1L2 (antibody, V domains shown)
VH: B1 VH with S40A, S79N, T99A
VL: B1 VL
notes: humanized 37B9C4, VH v1 x VL v2
B7: 37-H3L2 (antibody, V domains shown)
VH: B1 VH with N76D, A77S, L81V
VL: B1 VL
notes: humanized 37B9C4, VH v3 x VL v2
B8: 37-H3L3 (antibody, V domains shown)
VH: B1 VH with N76D, A77S, L81V
VL: B1 VL with V19I, Q100S
notes: humanized 37B9C4, VH v3 x VL v3
B9: 58-H1L1 (antibody, V domains shown)
VH: QVQLVQSGAEVKKPGASVKVSCKASGYSFTGYYIHWVRQAPGQGLEWMGYISSYNAATSFNQKFKGRVTMTRDTSTSTVYMELSSLRSEDTAVYYCARTELRGPWFAYWGQGTLVTVSS
VL: DIQMTQSPSSLSASVGDRVTITCSASSSVSYMNWYQQKPGKAPKLLIYDTSKLASGVPSRFSGSGSGTDFTLTISSLQPEDFATYYCQQWSNNPLTFGQGTKLEIK
notes: humanized 58F9G10, VH v1 x VL v1
B10: 58-H4L2 (antibody, V domains shown)
VH: B9 VH with V20I, R38K, M48I, V68A, M70F, R72V, V79A, L83F, T91S
VL: B9 VL with I2T, L45R, F70Y
notes: humanized 58F9G10, VH v4 x VL v2
B11: 58-H2L3 (antibody, V domains shown)
VH: B9 VH with M48I, M70F, R72V
VL: B9 VL with I2T, M4L, I21M, L45R, F70Y, L77M
notes: humanized 58F9G10, VH v2 x VL v3
B12: 58-H4L1 (antibody, V domains shown)
VH: B9 VH with V20I, R38K, M48I, V68A, M70F, R72V, V79A, L83F, T91S
VL: B9 VL
notes: humanized 58F9G10, VH v4 x VL v1
B13: 58-H3L2 (antibody, V domains shown)
VH: B9 VH with R38K, M48I, M70F, R72V, L83F
VL: B9 VL with I2T, L45R, F70Y
notes: humanized 58F9G10, VH v3 x VL v2
B14: 58-H3L1 (antibody, V domains shown)
VH: B9 VH with R38K, M48I, M70F, R72V, L83F
VL: B9 VL
notes: humanized 58F9G10, VH v3 x VL v1
B15: 58-H3L3 (antibody, V domains shown)
VH: B9 VH with R38K, M48I, M70F, R72V, L83F
VL: B9 VL with I2T, M4L, I21M, L45R, F70Y, L77M
notes: humanized 58F9G10, VH v3 x VL v3
B16: 58-H4L3 (antibody, V domains shown)
VH: B9 VH with V20I, R38K, M48I, V68A, M70F, R72V, V79A, L83F, T91S
VL: B9 VL with I2T, M4L, I21M, L45R, F70Y, L77M
notes: humanized 58F9G10, VH v4 x VL v3
B17: 34-H2L2 (antibody, V domains shown)
VH: EVQLVESGGGLVKPGGSLRLSCAASGFTFSSYGMSWVRQTPGKGLEWVATISSGGSYTYYPDSVKGRFTISRDNAKNSLYLQMSSLRAEDTAVYYCARQGGDAMDYWGQGTLVTVSS
VL: DIQMTQSPSSLSASVGDRVTITCRASQSINNNLHWYQQKPGKAPKLLIYYASQSISGIPSRFSGSGSGTDFTLTISSVQPEDFATYFCQQSNSRLTFGGGTKVEIK
notes: humanized 34D3H1, VH v2 x VL v2
B18: 34-H2L4 (antibody, V domains shown)
VH: B17 VH
VL: B17 VL with Q3V, M4L, A13V, I21L, A43S, V103L
notes: humanized 34D3H1, VH v2 x VL v4
B19: 34-H3L4 (antibody, V domains shown)
VH: B17 VH with Q3H, G44R, Y80N
VL: B17 VL with Q3V, M4L, A13V, I21L, A43S, V103L
notes: humanized 34D3H1, VH v3 x VL v4
B20: 34-H3L1 (antibody, V domains shown)
VH: B17 VH with Q3H, G44R, Y80N
VL: B17 VL with I58V, V78L, F87Y
notes: humanized 34D3H1, VH v3 x VL v1
B21: 34-H1L4 (antibody, V domains shown)
VH: B17 VH with T40A, A49S, S84N
VL: B17 VL with Q3V, M4L, A13V, I21L, A43S, V103L
notes: humanized 34D3H1, VH v1 x VL v4
B22: 34-H2L3 (antibody, V domains shown)
VH: B17 VH
VL: B17 VL with M4L, A43S, V103L
notes: humanized 34D3H1, VH v2 x VL v3
B23: 34-H3L3 (antibody, V domains shown)
VH: B17 VH with Q3H, G44R, Y80N
VL: B17 VL with M4L, A43S, V103L
notes: humanized 34D3H1, VH v3 x VL v3
B24: 34-H1L2 (antibody, V domains shown)
VH: B17 VH with T40A, A49S, S84N
VL: B17 VL
notes: humanized 34D3H1, VH v1 x VL v2
B25: 34-H2L1 (antibody, V domains shown)
VH: B17 VH
VL: B17 VL with I58V, V78L, F87Y
notes: humanized 34D3H1, VH v2 x VL v1
B26: 34-H3L2 (antibody, V domains shown)
VH: B17 VH with Q3H, G44R, Y80N
VL: B17 VL
notes: humanized 34D3H1, VH v3 x VL v2
B27: 34-H1L3 (antibody, V domains shown)
VH: B17 VH with T40A, A49S, S84N
VL: B17 VL with M4L, A43S, V103L
notes: humanized 34D3H1, VH v1 x VL v3

These binders were tested against T1, human G-protein-coupled receptor family C group 5 member D (GPRC5D) (human, UniProt Q9NZD1 1-345) (assay: FACS, CHO-K1/GPRC5D).
T1 construct: whole, on cells; also called human GPRC5D protein
T1 sequence (Q9NZD1 whole entry): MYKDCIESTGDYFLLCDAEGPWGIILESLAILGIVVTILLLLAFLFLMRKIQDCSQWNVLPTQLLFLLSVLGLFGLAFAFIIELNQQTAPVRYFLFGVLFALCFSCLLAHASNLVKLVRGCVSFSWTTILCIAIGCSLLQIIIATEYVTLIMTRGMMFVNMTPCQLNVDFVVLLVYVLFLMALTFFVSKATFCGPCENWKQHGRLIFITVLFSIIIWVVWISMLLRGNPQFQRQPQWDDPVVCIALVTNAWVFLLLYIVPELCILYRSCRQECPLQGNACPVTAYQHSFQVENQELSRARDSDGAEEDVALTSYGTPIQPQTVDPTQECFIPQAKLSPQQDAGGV

Bottom	LogEC50	Span	Top	Binder
9380	0.345	166000	175000	B1
10400	0.233	163000	173000	B2
9180	0.351	166000	175000	B3
8050	0.333	160000	168000	B4
6370	0.292	173000	179000	B5
8850	0.35	173000	182000	B6
9190	0.315	170000	179000	B7
7780	0.285	173000	181000	B8

Molecular target: T1, human G-protein-coupled receptor family …
Experiment: FACS, CHO-K1/GPRC5D
Remark: another data set of the same source

Bottom	LogEC50	Span	Top	Binder
15000	0.252	92800	108000	B9
4600	0.341	100000	105000	B10
1230	0.27	90500	91700	B11
4990	0.365	99600	105000	B12
5980	0.374	99500	105000	B13
9890	-0.192	93800	104000	B14
4020	0.318	93700	97700	B15
6250	0.287	96400	103000	B16

What follows are binders tested against T1, human G-protein-coupled receptor family … (assay: FACS, NCI-H929 cells).

Bottom	LogEC50	Span	Top	Binder
281	0.165	13200	13500	B9
276	0.3	13700	13900	B14

Molecular target: T1, human G-protein-coupled receptor family …
Experiment: FACS, CHO-K1/GPRC5D
Remark: another data set of the same source

Bottom	LogEC50	Span	Top	Binder
8740	0.625	170000	179000	B17
4390	0.609	188000	192000	B18
12800	0.598	180000	193000	B19
11100	0.521	167000	178000	B20
10300	0.6	179000	189000	B21
7060	0.583	179000	186000	B22
9120	0.651	184000	193000	B23
13900	0.584	168000	182000	B24
7850	0.619	179000	187000	B25
9040	0.646	171000	180000	B26
10600	0.573	175000	186000	B27

These binders were tested against T1, human G-protein-coupled receptor family … (assay: FACS, CHO-K1/human GPRC5D).

Bottom	LogEC50	Span	Top	Binder
275	0.579	99200	99500	B9
75.4	0.612	104000	104000	B14
